Source: a protein production outcome set (Wang et al. 2014)

Assay: label from the status in PepcDB records

Row | Sequence | protein production
1 | MVPLESSTLFGVYGGFTDSMMMRETTTNNQDPSGDTCSVSDPAPGSTDYYNISSSPVKDDGTAPKNDVVCSINVDDNKDKSWLRLGIGPEENTDGSYKLQRCCSKNGSGRENSLELSLFSSSSTAVSSSIDHLPTQPLQLPYHHDQLLTMRGPSLVYNHQLMKPQTLLNRGFSFPSSKPWIPQYMAPFRPSSLSDRDVTNNNSLSRSCCVDEGGAGPSSEFRVLDPPRRPHSGLWFLLQASQFQ | failed
2 | MVPMASNNLAYIKLRLLSLLVGLGIAALASLIIYAVAYYLFGIYSIGIIFGVFVLVLMMDLLQWFIGPYIVDMVYRAKKADPNRYGNIIAIVEEVAKLNGIRPPTLYISEVSFPNAFAYESPIAGRRIAITRPLLGILNEDELRAVIGHEIGHLKHHDSAVIMAIGLIPTLIFYFAYTTLFAGDRRNGGSAIILALVLMVVSFLFNIMVLSVNRLRESYADANAALTIPNGARNLQTALAKIVRYGSSAKNTAASMLLFANYDMDREDVETLIDKWRTMRVGILSDLFSDHPHPAKRIRLLDKLQDSS | failed
3 | MVPPKLKQALELFKSLPKELRSQVLLEYAAKVPPPPPGVELERVHECQTPFFVHADVEGGKVRLYFHVPDEAPTVKAFAGLLREGLEGESPEAVLEVPPGFYRGYGLEEFFTPLRLRGLEAALLRLQAQVRKALTS | not failed
4 | MVQAWYMDESTADPRKPHRAQPDRPVSLEQLRTLGVLYWKLDADKYENDPELEKIRKMRNYSWMDIITICKDTLPNYEEKIKMFFEEHLHLDEEIRYILEGSGYFDVRDKEDKWIRISMEKGDMITLPAGIYHRFTLDEKNYVKAMRLFVGEPVWTPYNRPADHFDARVQYMSFLEGTA | not failed
5 | MVQEIIVDSGDIEFLTTPKEYKQQLLSLIECARQRIFITALYLQDDEAGREILHALYQAKANFPTIEINIFVDFNRGQRGLIGEKASLGNRALYLKLAHEYPHTVNIYGVAVKRKELEHHHHHH | failed
6 | MVQRITIAPQGPEFSRFVMGYWRLMDWNMSARQLVSFIEEHLDLGVTTVDHADIYGGYQCEAAFGEALKLAPHLRERMEIVSKCGIATTAREENVIGHYITDRDHIIKSAEQSLINLATDHLDLLLIHRPDPLMDADEVADAFKHLHQSGKVRHFGVSNFTPAQFALLQSRLPFTLATNQVEISPVHQPLLLDGTLDQLQQLRVRPMAWSCLGGGRLFNDDYFQPLRDELAVVAEELNAGSIEQVVNAWVLRLPSQPLPIIGSGKIERVRAAVEAETLKMTRQQWFRIRKAALGYDVP | not failed
7 | MVQTKRYAGLTAANTKKVAMAAPMFSIIIPTLNVAAVLPACLDSIARQTCGDFELVLVDGGSTDETLDIANIFAPNLGERLIIHRDTDQGVYDAMNRGVDLATGTWLLFLGADDSLYEADTLARVAAFIGEHEPSDLVYGDVIMRSTNFRWGGAFDLDRLLFKRNICHQAIFYRRGLFGTIGPYNLRYRVLADWDFNIRCFSNPALVTRYMHVVVASYNEFGGLSNTIVDKEFLKRLPMSTRLGIRLVIVLVRRWPKVISRAMVMRTVISWRRRR | failed
8 | MVREGFDVTLVEARERGGLETSYANGGQLSYRYVAPLADSGVPAQALGWLLRNDAPLRLRPRLDPAQWRWLLGFLAACRGSLNRRNAAHLLRLALLSQRTLQDWREEDGLDGFDWRRNGKLVAFRQPASFARARQGLADPSAQFVLTAAECLALEPALSAAPFVGGIHTPDEEVADCHAFCVQLAERLQASGHCRQLHGRRVTKIVEGGAAVRGVEVGGDLIEADHVVLAAGYRSAELMLPGLRLPLYPLKGYSLTLPVGAQHRAPDTSITDYDRKIVYARIGERLRIAAMVDIVGFDPGLEPARLALLRQQARDTFPQGGDFDAAVEWAGMRPATPTGVPLVGNGGYRNLWLNLGHGALGFTLACGSGRLLAEQIGRRPPSIDTTGLLPRGALAG | failed
9 | MVRKLRHFGDRLREEPDKFRFVLSRALWVTGLCRLITFSFPAGYRMRFYPSAISAGLWRDRNFRSEDADFVAGYLRPGETFVDVGANVGQLSLVAARRVTSSGRTIAIEAHPRTCNFLRGNVRLNGLPIEIHNVAVGSECGELFFTNFRSDDMNFAYAASPRNGSALRVPVATLDSIIGERPVDLLKVDVEGFECDLLRGAAQTLHNCRCLYIEDSEPNLRRAGSSRVELYDRLSEGGFELFHVRGKRLERVSVQAAGPLTENLIAVRGSDLPDALARTGFCLA | failed
10 | MVRLDLPWDLVDEILSRLPATSLGRLRFTCKRWNALFKDPEFITKQFHKAAKQDLVLMLSNFGVYSMSTNLKEIPNNIEIAQVFHCNGLLLCSTEEGNKTKLVVVNPCTGQTRWIEPRTDYNYNHDIALGYGNNSTKKSYDSYKILRITYGCKLVEIFELKSNSWRVLSKVHPNVEKHYYGGVSFKGNTYWLSYTKFNILSFDFTTETFRSVPLPFLYQDGFVTLALSVVREEQLLLLRSRFDMGQVGIWMCNKIDTETVLSWSKSFTLEFDSLRDLPVMSILRIFIEEDKKVIVVDCDDRWKENMIYIVGKNGFKKLSYEKDRSNLWRLPFFFSYVPSLVGLYPPM | failed
11 | MVRLIFSDIDGTLINSNFKVTPKTRQGIKQIVAQGATFVPISARMPEAITPIMEQIGIDSYIISYNGALIQDMQQKTIASHTMDGQVALQVCSYVSKHYSKIAWNVYRYHEWYSCDKENEWVQKEEEIVGLQSKEMSLMELEKQDRIHKLLLMGEPSLMGELENTLKAQYPHLSIAQSAPYFIEIMAPGIEKGKSAKTLADYLDISLADSIAFGDNYNDLNLLEIVGKGFVMGNAPKDLQERIGNVTQDNDNDGIYYALVEYMEN | failed
12 | MVRNMLIESVLFLAAGLFMLSYGSDWFVLGASRVAKQFNISSFVIGATIVAFGTSLPEIVTSAYAASTGSVELAVGNALGSCIANIGLVLGLSLIISTVFIKNRSVLKNGYLYIIYTIIFTAIGYNGFSFFDGIFLLFLLLVYVVYTIKSGEMDDEEHEKSITFKKAIIYLLIGLLFVILGSSFFVDGAKGLASAFGVSEKIIGFTIVAFGTSLPELSVSFAAARQKLGGIVIGNVIGSNIANMFGALAIASIIHEIPAVKFELSVNILMVLLLIAMMSKEKIKAVLNLNSTKEYLSKITKADGLILILIYLLFVLGLTGIF | failed
13 | MVRNSMKAEYDIDHLPHQTFYGDYSKTLVPMNKNSQIITKIKPKIRIIHIFAPEIINTDVKNFRTLVQSLTGKPEITKTGSKKKITNTNFPAPPGLPQDSGQEHTAELDNRIIGSHVVKEEWGSSSNTNTYFDFDGLIDLDEDDNIFSSRWFDLQQQ | failed
14 | MVRRTRAEMEETRATLLATARKVFSERGYADTSMDDLTAQASLTRGALYHHFGDKKGLLAAVVEQIDAEMDERLQAISDTAEDDWEGFRCRCRAYLEMALEPEIQRIVLRDARAVLGGASPDSQRHCVESMQRLIDNLIRQGVVAEADPQALASLIYGSLAEAAFWIAEGEDGNARLAQGVAALELLLRGLLVKPR | not failed
15 | MVRVCACLIVKNEAAHLARCLGSVQPWVDDIVVVDTGSTDETPAIARQFTERLFTFPWQDDFAAARNYSLEQATGDWILVIDADEVLVTLQEPPVPLGQQLAGSPFTAYQLLRREIGTGEQFSDFAIVRLFRNLPTLRYQGRFHEQLVSTAAAPLTIGTLETLRIDHYGYQPAQIQAKMRDRNIPILERIRASEGLPLHLLFALADMYQAVNNPVEAENCYQELFDRLLPHLLSGQLPENAPGALPEILNQLGRRLLATGDHDTLQLLCQQGLAWFPTYPPLNDLAGRWLMTLGFPLGATAYFEYCLELGRTNGYSKQMIFPLGYVREIAAEQLGRAYEALGDRERAAAAFAQAAALRQGKAHPQLEHHHHHH | not failed
16 | MVRVVRHSRGTCNRGLYEVRELARNRTLQQWGVEDSAELYGIRNWGAGYFDVAQNGDVVVYPFGHNRGPAVSIPEIIGGMRERGYDMPVLLRIENILDSQITSLHTSFRNAIGSLGYKGEYRGIFPIKVNQQQQVVEKIAQFGSHYHHGLEVGSKAELIAAVSQLRDREACLVCNGYKDEEFIDLGLHAVRLGFMCIFVLEMPGELDLILERGEALGVKPIIGVRAKLSVKAGGHWTDSGGERSTFGLTTSQIVDVVDRLKEKGMLDCFKLLHYHLGSQVPNIRDIRAAVMEACRIYAGLVQEGAAMGFLDLGGGLAVDYDGSHTNFVSSRNYTLDEYCADIVEAVMTTLDEQNIPHPHIVTESGRATVAYYSMLLFNILDVSRVEIGNLPDALPEDTPEPVRNMREVLAGMTLRNLQECYNDALYYRDAVRQLFLTGQVTLRQRTLSERLFWAIMKRIAQEKQKLKHVPKDLAEIDVALADIYYGNFSVFQSLPDSWAIDQLFPVMPVHRLQELPSRQGILSDITCDSDGRIDHFIDPQGMKGTLDLHPLRDGEEYYLGVFLVGAYQETLGDLHNLLGDTNVVSVRVHEDGTYEFVREIRGDSVADILSYVEYDPRRIYEDIRELAERAVREGRITASDRFRVMQAYEDGLRGYTYFERLEHHHHHH | failed
17 | MVSFRSRSNPAVVILGLGRFGMALGEELVHSGVEVMGIDTNPAVVDKASAILTYAAVADTTSEEALRQLAVNEASRVVIGIGSDMGASLLTASAVVEFNIPSIWAKALNNSHAKILKQIGVHHIIRPEQDTGRRIAHLMNGRVQEYAEFDRDYAIVKIAPPVSALGKKVCDFDRVQIIAVRPAGGMFRQSKPEMVLRSGDLILAAGNPDELERFGTLD | failed
18 | MVSLVMSGLTFWAVNTIQQDAQVNDTRFGRDLGLLLAANVAPLVADHNLTEVAQFSQRFYSSTSSVRYMLYADETGKIFFGIPFWEPEVENSLSIERRIQLPEEYPGDGEKPMVRQHMSPDGIVTDVFIPLIVDKKYLGVLAIGINPNQTAVISTNFTRDVTIAVFITIWVMVILAGVVNALTITKPIKELLVGVKQIAAGNFKQRIDLPLGGELGELILNFNEMAERLERYEEQNIEELTAEKAKLETLVSTIADGAVLIDNNMQVILVNPTARHIFGWEGADDVVGSNVLHHLPPAVQMEITRPLYEMAAGECDSAEFRLTLNQPSNRTIRILLTTVLNLQRESIKGIAITVQDITREVELNEAKSQFISNVSHELRTPLFNIKSFIETLHDYGEDLSLEERQEFLQTVNHETDRLTRLVNDVLDLSKLESGRSYSFDGVDLAQAIEQTLRTYQLNARDKGIELIQDVAPGLPLVLGNYDLLLQVLANLVGNALKFTSSGGKIAIRTYVLNTKSNSPNQPAQVRIEVSDTGIGIAQEDQQAIFDRFFRVENRVHTLEGTGLGLSIVRNIVERHRSRVNLVSEVGVGTTFWFDLILFEDEAPKKMVESGEEKAAMPTS | failed
19 | MVSRIPTGNRGQGNGIEQSASSHATEATPWLGVNLPYGHWLPSSARSVVSRASSLLGGLANFRWGGRPASARPAPNIRSAAIAPAQQTLPPELWQQIATLAGARPRRAMREVSLELRNASRAVVTHLTISDPAMFRQLSLYPALKSVRFKGELTLEALKALPPELEHLEIGRCTGSAISAEGLAHLASMPLKSLNLNGIEIGVEGARTLAASKSLVSLSLIGCGIGDRAAQALVASRSIQCLDLSVNRIGRDGAQALAGAPLVSLNLHNNEIGNEGARVLATSRTLTSLDVSNNGVGNAGAEAFAGNTVLKQLSLAGGMISGDGAQALADNKSLTDLDLSNNRLGDAGAQALADSESFVSLKLGGNEIGADGAEALARNVVLQSLNLSYNPIGFWGVNALGRAKLRKLDLCACAIDSDGASALARNTSLASLYLGSNRIGDDGARALAKNSTLTLLNLSGNNIHAVGAQALASNDSLITLDLSRNGIGDDGTAALACHPRLTSLNLSRNQIGSTGAQQLAKSATLAELDLSENRIGPEGAEALARSTVLTTLNVSYNAIGEAGARALAESVSLTSLDARRNGIGEDGAKVLEANTRITGTPQNPNFLAEDVPRPDVRWRD | failed
